Patent US20260209359A1 (NEXTERA, published 2026)
Residue numbers refer to the chain shown, from its start.

B1: AM17 scDb (bispecific antibody)
chain: DIRLTQSPSSLSASVGDRVTMTCRASQTVATYVNWYQQKPGRAPKLLMYVTSIRQSEVPSRFSGDGFGTDFTLTINPLQPDDFATYYCQQAYSTPVTFGQGTKLEIKGGGGSEVQLQQSGPELVKPGASMKISCKASGYSFTGYTMNWVKQSHGKNLEWMGLINPYKGVSTYNQKFKDKATLTVDKSSSTAYMELLSLTSEDSAVYYCARSGYYGDSDWYFDVWGAGTTVTVSSGGGGSGGGGSGGGGSDIQMTQTTSSLSASLGDRVTISCRASQDIRNYLNWYQQKPDGTVKLLIYYTSRLHSGVPSKFSGSGSGTDYSLTISNLEQEDIATYFCQQGNTLPWTFAGGTKLEIKGGGGSQVQLVQSGAEVKKPGASVKVSCKVSGYTLTELSMHWVRQAPGKGLEWMGGFDPEDGETIYAQKFQGRVTMTEDTSTDTAYMELSSLRSEDTAVYYCATDQGSSWGFYWGQGTLVTVSS
notes: as m68; without a His-tag in the SPR assay
B2: AMC8 scDb (bispecific antibody)
chain: B1 chain with S463A
notes: as m68
B3: AM2 scDb (bispecific antibody)
chain: DIRVTQSPSSLSASVGDRVTITCRASQNIMWYLNWYQQKPGKAPKLLIYAASSLQSGVPSRFSGSGSGTDFTLTISSLQPEDFATYYCQQSYSTPYTFGQGTKLEIKGGGGSEVQLQQSGPELVKPGASMKISCKASGYSFTGYTMNWVKQSHGKNLEWMGLINPYKGVSTYNQKFKDKATLTVDKSSSTAYMELLSLTSEDSAVYYCARSGYYGDSDWYFDVWGAGTTVTVSSGGGGSGGGGSGGGGSDIQMTQTTSSLSASLGDRVTISCRASQDIRNYLNWYQQKPDGTVKLLIYYTSRLHSGVPSKFSGSGSGTDYSLTISNLEQEDIATYFCQQGNTLPWTFAGGTKLEIKGGGGSQVQLVQSGAEVKKPGASVKVSCKVSGYTLTELSMHWVRQAPGKGLEWMGGFDPEDGETIYAQKFQGRVTMTEDTSTDTAYMELSSLRSEDTAVYYCATDQGSSWGFYWGQGTLVTVSS
notes: VLA-VHB-VLB-VHA, anti-CD3 UCHT1
B4: AM11 scDb (bispecific antibody)
chain: B3 chain with S26D, Q27I, N28D, M30R, E415Y, D416L, G417A, E418R
notes: as for B1
B5: AMC9 scDb (bispecific antibody)
chain: B3 chain with S463A
notes: as m68
B6: AM14 scDb (bispecific antibody)
chain: DIQLTQSPSSLSASVGDRVTITCRADIDIRWYLNWYQQKPGKAPKLLIYAASGLQSGVPSRFSGSGSGTDFTLTISSLQPEDFATYYCQQSYSTPFTFGPGTKVDIKGGGGSEVQLQQSGPELVKPGASMKISCKASGYSFTGYTMNWVKQSHGKNLEWMGLINPYKGVSTYNQKFKDKATLTVDKSSSTAYMELLSLTSEDSAVYYCARSGYYGDSDWYFDVWGAGTTVTVSSGGGGSGGGGSGGGGSDIQMTQTTSSLSASLGDRVTISCRASQDIRNYLNWYQQKPDGTVKLLIYYTSRLHSGVPSKFSGSGSGTDYSLTISNLEQEDIATYFCQQGNTLPWTFAGGTKLEIKGGGGSQVQLVQSGAEVKKPGASVKVSCKVSGYTLTELSMHWVRQAPGKGLEWMGGFDPEDGETIYAQKFQGRVTMTEDTSTDTAYMELSSLRSEDTAVYYCATDQGSSWGFYWGQGTLVTVSS
notes: as for B1
B7: 1-H02 full length human IgG1 (antibody, V domains shown)
VH: QVQLVQSGAEVKKPGASVKVSCKVSGYTLTELSMHWVRQAPGKGLEWMGGFDPEDGETIYAQKFQGRVTMTEDTSTDTAYMELSSLRSEDTAVYYCATDQGSSWGFYWGQGTLVTVSS
VL: not shown
notes: also called 1-H02 hIgG1; 1-H02 IgG
B8: AM10 Fab (Fab, V domains shown)
VH: B7 VH with S102A
VL: not shown
notes: Fab format
B9: AM2 Fab (Fab, V domains shown)
VH: B7 VH
VL: DIRVTQSPSSLSASVGDRVTITCRASQNIMWYLNWYQQKPGKAPKLLIYAASSLQSGVPSRFSGSGSGTDFTLTISSLQPEDFATYYCQQSYSTPYTFGQGTKLEIKR
B10: AM15 Fab (Fab, V domains shown)
VH: B7 VH
VL: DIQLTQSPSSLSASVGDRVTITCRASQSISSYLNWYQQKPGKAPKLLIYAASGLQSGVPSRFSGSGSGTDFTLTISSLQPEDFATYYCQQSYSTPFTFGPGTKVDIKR
B11: AMC9 Fab (Fab, V domains shown)
VH: B7 VH with S102A
VL: B9 VL
B12: 1-H02 Fab (Fab, V domains shown)
VH: B7 VH
VL: not shown
notes: Fab format

biological target: T1, HLA-A*02:01/MAGE-A4^230-239 displayed on cells (MAGE-A4^230-239 pulsed T2 cells; NCI-H1703, A375, THP1, … (human, UniProt P04439 25-365 at identity 0.94); P61769 21-119); assay: cell-based or functional assay

Row | Binder | EC50 vs. NCI-H1703 (pM), T-cell specific killing [pM]
1 | B1 | 2.9
2 | B2 | 2.51
3 | B3 | 2.2
4 | B4 | 3.1
5 | B5 | 1.68
6 | B6 | 5.1

biological target: T1, HLA-A*02:01/MAGE-A4^230-239 displayed …; assay: cell-based or functional assay; remark: another data set of the same source

Row | Binder | EC50 vs. A375 (pM), T-cell specific killing [pM]
7 | B2 | 1.6
8 | B3 | 3.7
9 | B5 | 2.4

biological target: T1, HLA-A*02:01/MAGE-A4^230-239 displayed …; assay: cell-based or functional assay; remark: another data set of the same source

Row | Binder | EC50 vs. C-33-A (pM), T-cell specific killing [pM] | EC50 vs. HuTu80 (pM), T-cell specific killing [pM]
10 | B3 | 7.2 | 7.8
11 | B5 | 1.33 | 6.6

biological target: T1, HLA-A*02:01/MAGE-A4^230-239 displayed …; assay: cell-based or functional assay; remark: another data set of the same source

Row | Binder | IFNγ EC50 vs. target positive cells (pM)
12 | B1 | 10.9
13 | B2 | 7.7
14 | B3 | 4.4
15 | B4 | 7.2
16 | B5 | 7.6
17 | B6 | 4.1

biological target: T2, HLA-A*02:01/MAGE-A4^230-239, soluble recombinant biotinylated pHLA (human, UniProt P04439 25-299 at identity 0.94); P61769 21-119, biotinylated); assay: ELISA, biotinylated pHLA on neutravidin, protL-HRP
T2 construct: Empty biotinylated HLA-A2 monomers (Tetramer Shop) loaded with synthetic peptide; also called MAGE-A4 pMHC; MAGE-A4-pHLA
Procedure: Dotted lines indicate the EC₅₀ value (concentration at which half of maximal binding signal is achieved).
Assay 1 described above was performed. ELISA plates were coated with 5 μg/mL NeutrAvidin in PBS and incubated 16 h/4° C. (step (a)) and blocked with 5% skim milk powder in PBST for 1 h/room temperature (RT) (step (c)). […] Bound phage particles were detected with an anti-Fd antibody (anti-M13-HRP (Amersham Biosciences)), whereas bound IgG1 and scDb was detected with HRP conjugated protein L (Genscript) (step (i)). […] Plates were developed with TMB solution and read at 450 nm using a microplate reader (step (k)). Between each layer, the plates were washed 3× with PBST (steps (b), (d), (f), (h), and (j)).

Row | Binder | EC50 [nM]
18 | B7 | 1.1

biological target: T2, HLA-A*02:01/MAGE-A4^230-239, soluble …; assay: ELISA, soluble biotinylated pHLA on neutravidin, scDb, protL-HRP
Procedure: ELISA plates were coated with 5 μg/mL NeutrAvidin in PBS and incubated 16 h/4° C. (step (a)) and blocked with 5% skim milk powder in PBST for 1 h/room temperature (RT) (step (c)). […] Bound phage particles were detected with an anti-Fd antibody (anti-M13-HRP (Amersham Biosciences)), whereas bound IgG1 and scDb was detected with HRP conjugated protein L (Genscript) (step (i)). […] Plates were developed with TMB solution and read at 450 nm using a microplate reader (step (k)). Between each layer, the plates were washed 3× with PBST (steps (b), (d), (f), (h), and (j)).

Row | Binder | EC50 [nM]
19 | B1 | 0.3
20 | B2 | 0.88
21 | B3 | 0.32
22 | B4 | 0.17
23 | B5 | 0.62
24 | B6 | 0.1

biological target: T2, HLA-A*02:01/MAGE-A4^230-239, soluble …; assay: SPR, biotinylated pHLA on neutravidin chip, Fab injected (Assay 6-1); Fab format

Row | Binder | Kd [nM]
25 | B8 | 325
26 | B9 | 86.3
27 | B10 | 148
28 | B11 | 15.8

biological target: T2, HLA-A*02:01/MAGE-A4^230-239, soluble …; assay: SPR, biotinylated pHLA on neutravidin chip, Fab injected (Assay 6-1); Fab, not scDb

Row | Binder | Kd [nM]
29 | B12 | 1410

biological target: T2, HLA-A*02:01/MAGE-A4^230-239, soluble …; assay: SPR, biotinylated pHLA on neutravidin chip, scDb without His-tag injected (Assay 6-2)

Row | Binder | Kd [nM]
30 | B1 | 10.8
31 | B4 | 3.2
32 | B6 | 0.44
